Tested on: Escherichia coli TOP10
Assay: shrunken log2 fold change of peptide-encoding DNA abundance (4.5 h post-induction vs induction); higher = less antimicrobial activity (less host growth inhibition)
Conditions: time post-induction: 4.5 h; library: site-saturation at positions 5, 18, 19, 20
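Note: peptides expressed intracellularly from a pBAD plasmid library in pooled LB shake-flask culture, induced with 0.3% L-arabinose, DNA abundance read by NGS, three biological replicates, DESeq2 with apeglm shrinkage.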

Point of comparison: RRIRQRPPRLPRPRPRPTADPRP, “shrunken log2 fold change” value 0.392. Against it:
- RRIRFRPPRLPRPRPRPHQNPRP — lower, -0.182
- RRIRARPPRLPRPRPRPHQIPRP — within 0.2 log units, 0.354
- RRIRRRPPRLPRPRPRPMMKPRP — within 0.2 log units, 0.324
- RRIRHRPPRLPRPRPRPMFDPRP — lower, 0.108
- RRIRRRPPRLPRPRPRPNAAPRP — higher, 0.794
- RRIRERPPRLPRPRPRPHHDPRP — lower, -0.578
- RRIRVRPPRLPRPRPRPMHIPRP — lower, -0.231
- RRIRTRPPRLPRPRPRPQFMPRP — lower, 0.0325
- RRIRGRPPRLPRPRPRPSYFPRP — lower, -0.0109
- RRIRERPPRLPRPRPRPSASPRP — lower, -0.13
- RRIRVRPPRLPRPRPRPSIMPRP — lower, -0.451
- RRIRLRPPRLPRPRPRPATAPRP — within 0.2 log units, 0.214
- RRIRARPPRLPRPRPRPFTWPRP — lower, -0.193
- RRIRDRPPRLPRPRPRPESGPRP — higher, 0.778
- RRIRCRPPRLPRPRPRPFMLPRP — lower, -0.697
- RRIRSRPPRLPRPRPRPVYKPRP — lower, -0.166
- RRIRTRPPRLPRPRPRPMFRPRP — lower, -0.193
- RRIRWRPPRLPRPRPRPSANPRP — within 0.2 log units, 0.559
- RRIRERPPRLPRPRPRPKKAPRP — lower, -0.0599
- RRIRSRPPRLPRPRPRPTCKPRP — lower, 0.107
- RRIRERPPRLPRPRPRPEKYPRP — lower, -0.534
- RRIRMRPPRLPRPRPRPIWFPRP — lower, 0.1
- RRIRGRPPRLPRPRPRPHNSPRP — lower, -0.0747
- RRIRDRPPRLPRPRPRPTCIPRP — lower, 0.0607
- RRIRSRPPRLPRPRPRPEGIPRP — lower, 0.0592
- RRIRGRPPRLPRPRPRPCRPPRP — lower, -0.04
- RRIRQRPPRLPRPRPRPCPQPRP — lower, -0.153
- RRIRVRPPRLPRPRPRPKCKPRP — lower, -0.191
- RRIRIRPPRLPRPRPRPKFTPRP — lower, -0.8
- RRIRNRPPRLPRPRPRPTHIPRP — lower, -0.0851
- RRIRHRPPRLPRPRPRPRWQPRP — lower, 0.176
- RRIRDRPPRLPRPRPRPGKMPRP — lower, 0.0346
- RRIRRRPPRLPRPRPRPWYFPRP — lower, -0.204
- RRIRWRPPRLPRPRPRPKNAPRP — within 0.2 log units, 0.202
- RRIRCRPPRLPRPRPRPLEIPRP — lower, -0.164
- RRIRSRPPRLPRPRPRPDHRPRP — lower, 0.0482
- RRIRCRPPRLPRPRPRPRLGPRP — within 0.2 log units, 0.485
- RRIRPRPPRLPRPRPRPMFFPRP — lower, -0.207
- RRIRYRPPRLPRPRPRPVPMPRP — lower, -0.158
- RRIRERPPRLPRPRPRPIMHPRP — lower, -0.462
- RRIRWRPPRLPRPRPRPQGNPRP — lower, -1.12
- RRIRRRPPRLPRPRPRPTHNPRP — higher, 0.695
- RRIRMRPPRLPRPRPRPGRVPRP — higher, 0.919
- RRIRVRPPRLPRPRPRPLWSPRP — lower, -0.0257
- RRIRYRPPRLPRPRPRPEHPPRP — lower, -0.143
- RRIRYRPPRLPRPRPRPNIWPRP — lower, -0.302
- RRIRWRPPRLPRPRPRPDHRPRP — lower, -0.0843
- RRIRQRPPRLPRPRPRPPMEPRP — lower, -0.22
- RRIRERPPRLPRPRPRPIYFPRP — lower, -0.378
- RRIRRRPPRLPRPRPRPTKTPRP — lower, 0.049
- RRIRQRPPRLPRPRPRPWGFPRP — lower, 0.0223
- RRIRRRPPRLPRPRPRPCILPRP — lower, -0.208
- RRIRYRPPRLPRPRPRPQGIPRP — lower, -0.236
- RRIRRRPPRLPRPRPRPFEFPRP — lower, 0.117
- RRIRCRPPRLPRPRPRPFMIPRP — lower, -0.259
- RRIRSRPPRLPRPRPRPCKVPRP — lower, -0.265
- RRIRVRPPRLPRPRPRPMSMPRP — lower, -0.323
- RRIRTRPPRLPRPRPRPGSAPRP — within 0.2 log units, 0.362
- RRIRARPPRLPRPRPRPSFPPRP — lower, -0.0947
- RRIRERPPRLPRPRPRPHQKPRP — lower, -0.0694
- RRIRDRPPRLPRPRPRPGTKPRP — lower, -0.0282
- RRIRVRPPRLPRPRPRPLVLPRP — lower, -0.122
- RRIRARPPRLPRPRPRPDPMPRP — higher, 1.02
- RRIRERPPRLPRPRPRPKWVPRP — lower, -0.0367
- RRIRRRPPRLPRPRPRPIDPPRP — lower, -0.0222
- RRIRIRPPRLPRPRPRPHRTPRP — lower, -0.125
- RRIRPRPPRLPRPRPRPVHSPRP — lower, 0.127
- RRIRTRPPRLPRPRPRPTQDPRP — higher, 0.837
- RRIRSRPPRLPRPRPRPGGNPRP — lower, 0.163
- RRIRQRPPRLPRPRPRPEACPRP — lower, -0.000521
- RRIRVRPPRLPRPRPRPNYCPRP — lower, -0.157
- RRIRRRPPRLPRPRPRPTDRPRP — within 0.2 log units, 0.194
- RRIRCRPPRLPRPRPRPSVWPRP — within 0.2 log units, 0.238
- RRIRWRPPRLPRPRPRPLYFPRP — lower, -0.613
- RRIRYRPPRLPRPRPRPVGCPRP — lower, -0.284
- RRIRSRPPRLPRPRPRPGLPPRP — within 0.2 log units, 0.225
- RRIRVRPPRLPRPRPRPQNIPRP — lower, -0.504
- RRIRYRPPRLPRPRPRPKNEPRP — lower, -0.372
- RRIRRRPPRLPRPRPRPCFDPRP — lower, 0.1
- RRIRVRPPRLPRPRPRPSKSPRP — lower, -0.172
- RRIRPRPPRLPRPRPRPYVWPRP — lower, -0.365
- RRIRCRPPRLPRPRPRPFNSPRP — lower, 0.101
- RRIRGRPPRLPRPRPRPCVFPRP — higher, 0.664
- RRIRLRPPRLPRPRPRPRITPRP — lower, -0.027
- RRIRTRPPRLPRPRPRPWGCPRP — lower, -0.151
- RRIRYRPPRLPRPRPRPDEQPRP — lower, -0.00172
- RRIRWRPPRLPRPRPRPPKCPRP — lower, 0.156
- RRIRFRPPRLPRPRPRPGHFPRP — lower, -0.24
- RRIRFRPPRLPRPRPRPTQLPRP — within 0.2 log units, 0.364
- RRIRLRPPRLPRPRPRPDLIPRP — lower, -0.0276
- RRIRQRPPRLPRPRPRPHNDPRP — lower, -0.421
- RRIRYRPPRLPRPRPRPRQPPRP — lower, 0.137
- RRIRSRPPRLPRPRPRPYNHPRP — lower, -1.54
- RRIRLRPPRLPRPRPRPMYVPRP — lower, -0.199
- RRIRERPPRLPRPRPRPMIQPRP — lower, -0.176
- RRIRFRPPRLPRPRPRPDSCPRP — lower, -0.011
- RRIRHRPPRLPRPRPRPAMIPRP — lower, -0.0435
- RRIRFRPPRLPRPRPRPYTCPRP — lower, -0.22
- RRIRIRPPRLPRPRPRPKQMPRP — lower, -0.166
- RRIRGRPPRLPRPRPRPYPWPRP — lower, 0.155
- RRIRGRPPRLPRPRPRPRAHPRP — higher, 0.857
- RRIRGRPPRLPRPRPRPICAPRP — higher, 1.2
- RRIRDRPPRLPRPRPRPTMRPRP — higher, 1.3
- RRIRLRPPRLPRPRPRPPAAPRP — higher, 0.771
- RRIRWRPPRLPRPRPRPHFAPRP — lower, 0.046
- RRIRKRPPRLPRPRPRPWIRPRP — lower, -0.336
- RRIRSRPPRLPRPRPRPDLRPRP — within 0.2 log units, 0.248
- RRIRTRPPRLPRPRPRPSMTPRP — lower, -0.401
- RRIRFRPPRLPRPRPRPQSWPRP — lower, -0.0287
- RRIRSRPPRLPRPRPRPKKKPRP — within 0.2 log units, 0.195
- RRIRMRPPRLPRPRPRPRKDPRP — higher, 0.61
- RRIRQRPPRLPRPRPRPHFCPRP — lower, 0.0177
- RRIRPRPPRLPRPRPRPGTFPRP — lower, -0.226
- RRIRKRPPRLPRPRPRPLQVPRP — within 0.2 log units, 0.333
- RRIRERPPRLPRPRPRPIDDPRP — lower, 0.0583
- RRIRDRPPRLPRPRPRPKCHPRP — lower, 0.028
- RRIRIRPPRLPRPRPRPRMAPRP — lower, 0.0331
- RRIRERPPRLPRPRPRPSDQPRP — lower, -1.5
- RRIRVRPPRLPRPRPRPAVPPRP — lower, 0.0151
- RRIRYRPPRLPRPRPRPNHRPRP — lower, -0.767
- RRIRRRPPRLPRPRPRPNNMPRP — lower, -0.348
- RRIRFRPPRLPRPRPRPDYLPRP — lower, -0.159
- RRIRARPPRLPRPRPRPRNYPRP — lower, 0.0668
- RRIRCRPPRLPRPRPRPTGWPRP — within 0.2 log units, 0.314
- RRIRYRPPRLPRPRPRPFDNPRP — lower, 0.0112
- RRIRARPPRLPRPRPRPCMHPRP — lower, -0.226
- RRIRRRPPRLPRPRPRPHRQPRP — lower, 0.0248
- RRIRVRPPRLPRPRPRPCQTPRP — lower, -0.03
- RRIRWRPPRLPRPRPRPMCLPRP — lower, -0.0933
- RRIRARPPRLPRPRPRPWCNPRP — lower, -0.536
- RRIRPRPPRLPRPRPRPEAGPRP — within 0.2 log units, 0.566
- RRIRLRPPRLPRPRPRPFEYPRP — lower, -0.0121
- RRIRHRPPRLPRPRPRPRSYPRP — lower, -0.12
- RRIRFRPPRLPRPRPRPHCIPRP — lower, -0.457
- RRIRMRPPRLPRPRPRPRMRPRP — higher, 1.41
- RRIRNRPPRLPRPRPRPYLPPRP — lower, -0.245
- RRIRVRPPRLPRPRPRPFNVPRP — lower, -0.185
- RRIRVRPPRLPRPRPRPMKLPRP — lower, -0.0169
- RRIRVRPPRLPRPRPRPFPDPRP — lower, -0.345
- RRIRPRPPRLPRPRPRPFSKPRP — lower, -0.0785
- RRIRDRPPRLPRPRPRPNGSPRP — lower, -0.0808
- RRIRVRPPRLPRPRPRPQKEPRP — lower, -0.178
- RRIRLRPPRLPRPRPRPINIPRP — lower, -0.735
- RRIRFRPPRLPRPRPRPNVFPRP — lower, -0.108
- RRIRGRPPRLPRPRPRPVMQPRP — higher, 0.775
- RRIRTRPPRLPRPRPRPKGRPRP — lower, -0.219
- RRIRLRPPRLPRPRPRPGRYPRP — lower, -0.124
- RRIRHRPPRLPRPRPRPWRTPRP — lower, -0.229
- RRIRQRPPRLPRPRPRPPTRPRP — within 0.2 log units, 0.398
